Experiment: yeast display, Sf9 membrane polyspecificity reagent, FACS + sequencing; frameworks hold sequencing errors
Procedure, shortened: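 Genes from sorted yeast were amplified by colony PCR, read by MiSeq 2 × 250 sequencing and filtered on CDR length. These cells carried a synthetic nanobody library in Saccharomyces cerevisiae BJ5465 and were sorted by FACS into low and high (top ~1%) gates on anti-HA and streptavidin fluorescence. Polyreactivity is labelled according to the gate of origin.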

Sequence	polyreactivity (PSR sort gate)
QVQLVESGGGLVQAGGSLRLSCAASGSIFEIYDMGWYRQAPGKERELVASIRTSGGSTYYADSVKGRFTISRDNAKNTVYLQMNSLKPEDTAVYYCATGWSWYHPDYDYWGQGTQVTVSS	low polyreactivity
QVQLVESGGGLVQAGGSLRLSCAASGRIFVYYVMGWYRQAPGKERELVASITFRGSRTYYADSVKGRFTISRDNAKNTVYLQMNSLKTEETAGYYCNADVWASGSRGEGYWGQGSQVTVSS	low polyreactivity
QVQLVESGGGLVQAGGSLRLSCAGSGFIFAQNTMGWYRQAPGKERELVAAITRRGGSTYYADSVKGRFTISRDNAKTTVYLQMNSLKPEDTAVYYCARATVGAWRKMYSWGQGTQVTVSS	high polyreactivity
QVQLVESGGGLVQAGGSLRLSCAASGRTLYTNAMGWYRQPPGKEREFVASISGSGGSTYYADSVKGRFTISRDNAKNTVDLQMNRLKQEDTAVYYCAADPAQTVEFGKYDYWGQGTQVTVSS	low polyreactivity
QVQLVESGGGLVQAGSSLRLSCAASGSIFPVYAMGWYRQSPGKERELVAAISCIGGGTYYADSVKGRFTISRDNAKNTVYLQMNSLKPEDTAVYYCAAVPYTSEYDYWGQGTQVTVSS	high polyreactivity
QVQLVESGRGLVEAGGSLRLSCAASGFIFLPYAMVWYRQAPGKERELVAAITRGGRTYYADSVNRRFTISRDNAKNTVYLQMNSLKPEDTAVYDCAATTYLVWGYNYWGQGTQVTVSS	low polyreactivity
QVQLVESGGGLVQAGGRLRLSCAASGRIFNHYAMGWYRQAPGKERELVAAITFSGGSTYYADSVKGRFTISRDNAKNTVHLQMNSLKPEHTAVYYCANRFSYRYGLQYDYWGQGTQGTVSS	high polyreactivity
QVQLVESGGGLVQAGGSLRLSCAASGLIFLYAMGWYRQAPGKERELVAAISNGGSTYYADSVKGRFTISRDNAKNTVYLQMNSLKPEDTAVYYCAAKGVRRRYRQDMYYWGQGTQVTVSS	high polyreactivity
QVQLVESGGGLVQAGGSLRLSCAASGRIVGAYAMGWYRQAPGKERELVAAITSAGSTHYADSVKGRFTISRDNAKNTVYLQMNSLKPEDSAVYYCAADGIARAYVLFYAYDFLYDYWGQGTQVTVSS	low polyreactivity
QVQLVESGGGLVQAGGSLRLRCAASGSTFGLYTMGWYSQAPGKERELVASISIVGSTYYADSVKGLFTSSRDNAKNTVYFQMNSLKPVDTAVYYCAADSEIIYTVRNRTYPWIMDYWGQGTQVTVSS	low polyreactivity
QVQLVESRGGLVQAGGSLRLSCAASGRIFRYYAMGWYRQAPGKERELVAAITWRGGNTRYADSVKGRFTISRDNAKNTVYLPMNSLKTEDTAVYYCAARGQSAYSIWSYYYWGQGTQVTVSS	high polyreactivity
QDQLVESGGGLVQAGGSLRLSCAASGRTFFGYAMGWYRQAPGKERELVAAITTSGGSTYYADSVKGRFTISRDNAKNTVYLQMNSLKPEDTAVYYCAARAYYGYYYWGQGTQVTVSS	low polyreactivity
QVQLVESGGGLVQAGGSLRLSCAASGFTFQYYAMGWYRQAPGKERELVAVISRSGGRTYYADSVKVRFTISRDNAKNTVYLQMNSLKPEDTAVYYCAALSQPGQSDDKQYDYWGQGTQVTVSS	high polyreactivity
QVQLVESGGGLVQAGGSLRLSCAASGFNFGGNAMGWYRQAPGKERELVAAISGSGGSTYYADSVKGRFTISRDNAKNTVYLQMNSLKPEDTAVYYCAVKFPPRKSYGYYYWGQGTQVTVSS	high polyreactivity
QVQLVESGGGLVQAGGSLRLSCAASGRTFRWYAMGWDRQAPGKERELVAAISQSGGSTYYADSVKGRFTISRDNAKNTVYLQMNSLKPEDTAVYYCNAYPPYGGYAYGRGDYWGQGTQVTVSS	high polyreactivity
QVQLVESGGGLVQAGGSHRLSCAASGSTFIDYAMGWYRQAPGKERELVAAITNGGNTKYADSVKGRFTISRDNAKNTVYLQMNSLKPEDTAVYYCAREPSIFTPSYDYWGQGTQVTVSS	low polyreactivity
EVQLVESGGGLDQAGGSLRLICAASARTFIWNAMGWYRQEPGKERDLVAAITRNGDSTYYADSVKGRFTISRDNAKNTVYLQMNRLKPEDTAVYYCAAYSRVFVYRTVGNYGWMNYWGQGTQVTVSS	high polyreactivity
QVQLGESGGGLVQAGGSLRLTCAASGSIFRYYAMGWYRQAPGKERELVAAIRWSGGRTYYADSVKGRFTISRDNAKNTVYLQMNSLKPEDTAVYDCAADPPHYKPNVRYYYWGQGTQVTVSS	high polyreactivity
QVQLVESGGGLVQAGGSLRLSCAASGITFGFNAMVWYRQAPGKETELVAAITYRGGSTYYADSVKGRFTISRDNAKNTVYLQMNSLKPEDTAVYYCAADIGRHTDNYDPRYDYWGQGTHVTVSS	low polyreactivity
QVQLVESGGGLVQAGGILRLNCAASGFIFRRYAMGWSRQAPGKERELVAAISSGGTSTYYADSVKGRFTISRDNAKYTVYLQKNSLKPEDTAVSYCNVDTDPYYWGGDYYWGQGTQVTVSS	high polyreactivity
QVQLVESGGGLVQAGGSLRLSCAASGNTFTWYTMGWYRQAPGKERELVAVITSDGSTYYADSVKGRFTISRDNAKNTVYLQMNSLKPEDTAVYYCNALSADWYPEEDYWGQGTQVTVSS	low polyreactivity
QVQHVESGGGLVQAGGSLRLSCAASGRTFQLYDMGWYRQPHGKDRELVAGITITGGSTYYADSVKGRFTISRDIAKNTVYIQMISLKPEDTAVYYCAARKARPPFPHPFDYYWGQGTQVTVSS	low polyreactivity

Sequence	polyreactivity (PSR sort gate)
QVQLVESGGGVVQAGGSLRLSCAASGRIFSVYAMVWYRQAPGKEREFVGSISWRGGRTYYADSVKGRFTISRDNAKNTVYLQMISLKPEDTAVYYCAAVSYPAVYGFDYWGQGTQVTVSS	high polyreactivity
QVQLVESGVGLVQAGGSLRLSCAASGFTFQQYAMAWYRQAPGKERELVASISSSGGSTYYADSVKGRFTISRDNAKNTVYLQMNSLKPEDTAVYYCNARSWVRRYIYYYWGQGTQVTVSS	high polyreactivity
QVQLVESGGGLVQAGGSLRLSCAASGNTFVKYVIGWYRQAPGKEREYVAAITVRGNTYYADSVKGRFTISRDNAKNTVYLQMNSLKPEDTAVYYCAARIYYLYKDRRLGYYWGQGTQVTVSS	high polyreactivity
QVQLVDSGGGLVQAGGSLRLSCAASGRTFYYYAMGWYRQAPGKERELVADIRGRGGSTYYADSVKGRFTISRDNAKNTVYLQMNSLKPEDTAVYYCARRSPNPYSIYYYWGQGTQVTVSS	high polyreactivity
QVQLVESGGGLVQAGGSLRLSCAASGFIFATNPMGWYRQAPGKERELVAASSTYYADSVKGRFTISRDNAKNTVYLQMNSLKPEDTAVYYCNADRDSYIGFVDWAGEYWGQGTQVTVSS	low polyreactivity
QVQLVESGGGLVQAGGSLRLSCAASGSIFTWYTMGWYRQAPGKERELVAGIRTGGSTYYADSVKGRFTISRDNAKNTVYLQMNSLKPEDTSVYYCARQRWYRQYYFTSDYWGLGTQVTVSS	high polyreactivity
QVQLEESGGGLVQAGGSLRLSCAASGITFERYVMGWYRQAPGKERELVASISRSGSTYYADSVKGRFTISRDNAKNTVYLQMNSLKPEDTAVYYCNADRFWFHWVYSRYHYDYWGQGTQVTVSS	high polyreactivity
QVQLVESCGGLVQAGGSLRLSCAASGFIFTYYVMGWYRQAPGKERELVATISISDGTTYADSVKGRFTISRDNAKNTVYLQMNSLKPEDTAVYYCAADNSFTDNYWGQGTQVTVSS	low polyreactivity
QVHLVESGGGLVQAGGSLRLSCAASGITFGYYAMGWYRQAPGKERELVAAISNSGRTYYADSVKGRFTISRDNAKNTVYLQMNSLKPEDTAVYYCADVDAYYDFYYWGQGTQVTVSS	low polyreactivity
QVQHVESGGGLVQAGGSLRIRCAASGSIFDLNAMGWYRPAPGKEMELVAASSSGGGTYYADSVKGRFTISRDNAKKTVYLLMISLKPEDTALSDCNRVTRWTYNYWGQGSQVTVSS	high polyreactivity
QVQLVESGGGLVQAGGSLRLSCAASGSTFITYAMGWYRQAPGKERELVAAISTGGSTYYADSVKGRFTISRDNAKNTVYLQMNSLKPEDTAVYYCNAYSSSRGSTLQYSLQYDYWGQGTQVTVSS	low polyreactivity
QEQLVESGRGLVQAGGSLRVSCAASGSIFSVNGMGWYRQAPGKARELVAAIRRSGGSTYYADSVKGRFTISRDHAKNTVNLQRNSLKPEDTAVYYCAAPVRQSSYTRYDAWGQGTQVTVSS	high polyreactivity
QVQLVESGGGLVQAGGSLRLSCAASGFILLDNAMGRYRQAPVKEREFVASINISGDRTFYADSVKGRFTISRDNAKNTVYLQMNSLKPEDTAVYYCAKEPGLGRRSTTAYDYWGQGTQVTVSS	low polyreactivity
QVQLVESGGGLVQAGGSLRLSCAASGFTFRANAMGWYRQAPGKERELFATISRGGPTNYADSVKGRFTISRDNAKNTVYLQMNSLKPADTAVYYCAASFSPYHTDRGDYWGQGTQVTVSS	high polyreactivity
QVQLVESGGGLVQAGGSLRLTCDASGSTFYIYAMGWYRQAPGKERELVARISGSCGSTYYADSVKGRFTISRDNAKNTVYLQMNSLKPEETAVYDCASDDIYKNYQYYAFPYYRYDYWGQGTQVTVSS	low polyreactivity
QVQLVESGGGLVQAGGSLRLSCAASGRIFAKNTMGWYRQAPGKERELVAAITWSSGNTDYADSVKGRFTISRDNAKNTVYLQMNSLKPEDTAVYYCNARFYYRPLRFSYDYWGQGTQVTVSS	high polyreactivity
LVQLVESGGRLVQAGGSLRLSCAASGRTFPAYTMGWYRQSPGKERDLVAANYSSGGTTYYADSVKGRFTISRDNAKNTVYLQIYSINPEDNAVYYCNAYLGYYYYYLDALIGYDYWGQGTQVTVSS	low polyreactivity
QVQLVESGGGLVQAGGSLRLSCAASGYIFDRYAMGWYRQAPGKERELVAAITNGGRTYYADSVKGRFTISRDNAKNTVYLQMNSLKPEDTAVYYCAAVVYSRGYYWGQGTQVTVSS	high polyreactivity
QVQLVESGGGLVQAGGSLRLSCDASGRIFSRNSMGWYRQAPGKERELVAANTWRGGSTYYADSVKGRFTISRDNAKNTVYLQLNSLKPEDPAVYYCNRDYRQYGYAYSGRYYWGQGTQVTVSS	high polyreactivity
QVQLVESGGGLVQAGGSLRLSCAASGSIFGRYTMGWYRQAPGKERELVAAISWGGGSTYYADSVKGRFTISRDNAKNTVYLQMNSLKREDTAVYYCDADTYWAIDPIYDYWGQGTQVTVSS	low polyreactivity
QVQLVESGGGLVQAGGSLRLSCAASGSIFKSYAMGWYRQAPGKERELVAVISDSGSTYYADSVKGRFTISRDNAKNTVYLQMNSLKPEDTAVYYCRCRGRRNEYWGQGTQVTVSS	high polyreactivity

Source: the nanobody polyreactivity screen of Harvey et al. (2022)
